Measured values as given in patent US20260209384A1 (Stanford University, published 2026).

Target: T1, recombinant human GPC2 (R&D Systems) (human, UniProt Q8N158 24-554, limits assumed, labelled with Dylight488 or Dylight650 in the flow cytometry assays; unlabelled in the ELISA)
T1 construct: extracellular domain; also called hGPC2; human Glypican-2
T1 sequence (looked up): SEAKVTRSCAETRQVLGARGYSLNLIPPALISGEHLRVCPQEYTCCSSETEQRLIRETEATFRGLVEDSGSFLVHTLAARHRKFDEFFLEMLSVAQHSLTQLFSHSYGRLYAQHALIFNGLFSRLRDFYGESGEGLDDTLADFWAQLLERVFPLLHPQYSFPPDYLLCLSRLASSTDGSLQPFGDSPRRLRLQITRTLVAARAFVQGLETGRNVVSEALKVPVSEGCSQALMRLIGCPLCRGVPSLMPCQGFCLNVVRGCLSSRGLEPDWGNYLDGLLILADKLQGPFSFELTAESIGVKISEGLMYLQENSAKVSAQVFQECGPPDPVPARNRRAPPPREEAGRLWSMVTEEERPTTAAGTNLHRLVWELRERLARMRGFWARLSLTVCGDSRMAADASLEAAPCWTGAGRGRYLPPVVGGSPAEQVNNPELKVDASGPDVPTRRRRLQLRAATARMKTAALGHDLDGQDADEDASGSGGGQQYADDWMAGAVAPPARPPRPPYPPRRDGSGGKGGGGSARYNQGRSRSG
Assay: panning of a human naive Fab phage library against recombinant human GPC2
Text: A naïve human Fab phage display library constructed from peripheral blood B cells of 50 healthy donors, was used for selection of Fabs against purified recombinant GPC2 ectodomain (R&D Systems) as previously described. The isolated Fabs were expressed, purified and tested for binding to the GPC2 ectodomain through ELISA.

B1: GPC2.27 (Fab from a human naive Fab phage library) (Fab, V domains shown)
VH: EVQLVESGPGLVKPSETLSLTCAVSGYSISSGYYWGWIRQPPGKGLEWIGSIYHSGSTYYNPSLKSRVTISVDTSKNQFSLKLSSVTAADTAVYYCASLPSRGGFDYWGQGTLVTVSS
VL: EIVMTQSPATLSASVGDRVTIACRASQTISRYLNWYQQKPGKAPKLLIYAASSLQSGVSSRFSGSGSGTEFTLTISSLQPEDFATYFCQQTYSPPITFGQGTRLEIKR
notes: Human Fab selected by phage display
- binding result: binds
